Source: US20110172168A1 (MEDIGENE, published 2011)
Substitutions are numbered along the chain they refer to.

B1: SEQ ID NO 7 (receptor)
chain: MAGHLPKPTLWAEPGSVITMDQPVTLRCQGGQETQEYRLYREKKTAPWITRIPQELVKKGQFPIPSITWEHAGRYRCYYGSDTSQWSASSDPLELVVTGVYIKPTLSAQPSPVVNSGGNVTLQCDSQVAFDGFILCKEGEDEHPQCLNSQPHARGSSRAIFSVGPVSPSRRWWYRCYAYPIWTPYEWSLPSDLLELDVDG
B2: SEQ ID NO 46 (receptor)
chain: B1 chain with P180D, I181S, T183S
B3: SEQ ID NO 58 (receptor)
chain: B1 chain with P180D, I181S, W182N, T183S, L189Q, P190M
B4: SEQ ID NO 15 (receptor)
chain: B1 chain with G3Q, A129S, P180D, I181S, W182N, T183S
B5: SEQ ID NO 16 (receptor)
chain: B1 chain with G3Q, A129T, P180D, I181S, W182N, T183S
B6: SEQ ID NO 20 (receptor)
chain: B1 chain with I181D, W182F
B7: SEQ ID NO 44 (receptor)
chain: B1 chain with I181A, W182Y
B8: SEQ ID NO 52 (receptor)
chain: B1 chain with L189Q, P190M
B9: SEQ ID NO 55 (receptor)
chain: B1 chain with L189S, P190G
B10: SEQ ID NO 57 (receptor)
chain: B1 chain with P180D, I181S, W182N, T183S, S188T, L189R, P190G
B11: SEQ ID NO 21 (receptor)
chain: B1 chain with I181W, W182F
B12: SEQ ID NO 17 (receptor)
chain: B1 chain with G3Q, F130Y, P180D, I181S, W182N, T183S
B13: SEQ ID NO 30 (receptor)
chain: B1 chain with M20Q, D21G, Q22S
B14: SEQ ID NO 34 (receptor)
chain: B1 chain with M20Q, D21G, Q22S, P180M, I181N, T183A
B15: SEQ ID NO 56 (receptor)
chain: B1 chain with S188T, P190G
B16: SEQ ID NO 12 (receptor)
chain: B1 chain with P180V, I181S, W182Y, T183W
B17: SEQ ID NO 10 (receptor)
chain: B1 chain with P180T, I181D, W182Y, T183S
B18: SEQ ID NO 54 (receptor)
chain: B1 chain with L189T, P190S
B19: SEQ ID NO 38 (receptor)
chain: B1 chain with M20Q, D21G, Q22S, P180M, I181S, T183A
B20: SEQ ID NO 14 (receptor)
chain: B1 chain with G3Q, A129D, P180D, I181S, W182N, T183S
B21: SEQ ID NO 9 (receptor)
chain: B1 chain with P180M, I181N, T183A
B22: SEQ ID NO 45 (receptor)
chain: B1 chain with P180M, I181S, W182N, T183S
B23: SEQ ID NO 36 (receptor)
chain: B1 chain with M20Q, D21G, Q22S, I181A
B24: SEQ ID NO 18 (receptor)
chain: B1 chain with P180M, I181S, T183A
B25: SEQ ID NO 43 (receptor)
chain: B1 chain with P180M, I181S, W182Y, T183S
B26: SEQ ID NO 48 (receptor)
chain: B1 chain with P180D, I181S, T183A
B27: SEQ ID NO 40 (receptor)
chain: B1 chain with M20Q, D21G, Q22S, P180M, I181S, T183S
B28: SEQ ID NO 8 (receptor)
chain: B1 chain with P180V, I181A, T183A
B29: SEQ ID NO 53 (receptor)
chain: B1 chain with S188T, L189R, P190G
B30: SEQ ID NO 23 (receptor)
chain: B1 chain with P180V, I181E, T183L
B31: SEQ ID NO 51 (receptor)
chain: B1 chain with P190G
B32: SEQ ID NO 59 (receptor)
chain: B1 chain with P180D, I181S, W182N, T183S, L189S, P190G
B33: SEQ ID NO 11 (receptor)
chain: B1 chain with P180V, I181D, T183F
B34: SEQ ID NO 32 (receptor)
chain: B1 chain with M20Q, D21G, Q22S, P180V, I181A, T183A
B35: SEQ ID NO 13 (receptor)
chain: B1 chain with I181A
B36: SEQ ID NO 47 (receptor)
chain: B1 chain with P180M, I181S, W182N, T183A
B37: soluble truncated variant of the Wild-Type ILT-2 molecule (receptor)
chain: MGHLPKPTLWAEPGSVITQGSPVTLRCQGGQETQEYRLYREKKTAPWITRIPQELVKKGQFPIPSITWEHAGRYRCYYGSDTAGRSESSDPLELVVTGAYIKPTLSAQPSPVVNSGGNVTLQCDSQVAFDGFILCKEGEDEHPQCLNSQPHARGSSRAIFSVGPVSPSRRWWYRCYAYDSNSPYEWSLPSDLLELLVL
notes: also called soluble wild-type ILT-2; soluble two domain form of the wild-type ILT-2

The binders below were run against T1, CEA-derived … (SEQ ID NO: 71)-HLA-A*0201 complex (biotin on the C-terminal biotinylation tag (enzymatic, BirA)) (assay: Biacore SPR, pMHC immobilised).
T1 construct: also called soluble biotinylated HLA-A2-peptide complex; not shown: C-terminal biotinylation tag that replaces the transmembrane and cytoplasmic domains
Protocol: SPR measures changes in refractive index expressed in response units (RU) near a sensor surface within a small flow cell, a principle that can be used to detect receptor ligand interactions and to analyse their affinity and kinetic parameters. The probe flow cells were prepared by immobilising the pMHC complexes in flow cells via biotin-tag binding. The assay was then performed by passing soluble ILT over the surfaces of the different flow cells at a constant flow rate, measuring the SPR response in doing so.
B1 was tested, and the Kd was ≤ 1000 nM and the koff was ≤ 2 s⁻¹.
B2 was tested, and the Kd was ≤ 1000 nM and the koff was ≤ 2 s⁻¹.
In the case of B3, the Kd is reported as ≤ 1000 nM and the koff is reported as ≤ 2 s⁻¹.
In the case of B4, the Kd is reported as ≤ 1000 nM and the koff is reported as ≤ 2 s⁻¹.
B5 was tested, and the Kd was ≤ 1000 nM and the koff was ≤ 2 s⁻¹.
In the case of B6, the Kd is reported as ≤ 1000 nM and the koff is reported as ≤ 2 s⁻¹.
For B7, the Kd was ≤ 1000 nM and the koff was ≤ 2 s⁻¹.
In the case of B8, the Kd is reported as ≤ 1000 nM and the koff is reported as ≤ 2 s⁻¹.
In the case of B9, the Kd is reported as ≤ 1000 nM and the koff is reported as ≤ 2 s⁻¹.
With B10 the Kd was ≤ 1000 nM and the koff was ≤ 2 s⁻¹.
For B11, the Kd was ≤ 1000 nM and the koff was ≤ 2 s⁻¹.
With B12 the Kd was ≤ 1000 nM and the koff was ≤ 2 s⁻¹.
For B13, the Kd was ≤ 1000 nM and the koff was ≤ 2 s⁻¹.
B14 was tested, and the Kd was ≤ 1000 nM and the koff was ≤ 2 s⁻¹.
For B15, the Kd was ≤ 1000 nM and the koff was ≤ 2 s⁻¹.
B16 was tested, and the Kd was ≤ 1000 nM and the koff was ≤ 2 s⁻¹.
In the case of B17, the Kd is reported as ≤ 1000 nM and the koff is reported as ≤ 2 s⁻¹.
For B18, the Kd was ≤ 1000 nM and the koff was ≤ 2 s⁻¹.
With B19 the Kd was ≤ 1000 nM and the koff was ≤ 2 s⁻¹.
With B20 the Kd was ≤ 1000 nM and the koff was ≤ 2 s⁻¹.
With B21 the Kd was ≤ 1000 nM and the koff was ≤ 2 s⁻¹.
For B22, the Kd was ≤ 1000 nM and the koff was ≤ 2 s⁻¹.
For B23, the Kd was ≤ 1000 nM and the koff was ≤ 2 s⁻¹.
B24 was tested, and the Kd was ≤ 1000 nM and the koff was ≤ 2 s⁻¹.
B25 was tested, and the Kd was ≤ 1000 nM and the koff was ≤ 2 s⁻¹.
With B26 the Kd was ≤ 1000 nM and the koff was ≤ 2 s⁻¹.
In the case of B27, the Kd is reported as ≤ 1000 nM and the koff is reported as ≤ 2 s⁻¹.
For B28, the Kd was ≤ 1000 nM and the koff was ≤ 2 s⁻¹.
B29 was tested, and the Kd was ≤ 1000 nM and the koff was ≤ 2 s⁻¹.
With B30 the Kd was ≤ 1000 nM and the koff was ≤ 2 s⁻¹.
With B31 the Kd was ≤ 1000 nM and the koff was ≤ 2 s⁻¹.
With B32 the Kd was ≤ 1000 nM and the koff was ≤ 2 s⁻¹.
For B33, the Kd was ≤ 1000 nM and the koff was ≤ 2 s⁻¹.
With B34 the Kd was ≤ 1000 nM and the koff was ≤ 2 s⁻¹.
For B35, the Kd was ≤ 1000 nM and the koff was ≤ 2 s⁻¹.
In the case of B36, the Kd is reported as ≤ 1000 nM and the koff is reported as ≤ 2 s⁻¹.
For B37, the Kd was ~6000 nM and the koff was 2.4 s⁻¹.
